Here are results for five molecules from patent publication US20250388696A1 (NAVIGO PROTEINS, published 2025).

Where a chain is given by its changes, count along the chain named.

Assay [1] addresses T1, Her2 (immobilised on the SPR chip) (human, UniProt P04626 23-652, limits assumed).
T1 construct: construct not described; also called human epidermal growth factor receptor 2
Briefly: SPR, Her2 immobilised on the chip, pH 7.3, 1:1 Langmuir fit. The method, then:
(§1) Recombinant protein A, HSA, MSA or target (either ED-B or Her2) was immobilized on a High Capacity Amine sensor chip (Bruker) after NHS/EDC activation with a Sierra SPR-32 system (Bruker). The chip was equilibrated with SPR running buffer (PBS 0.05%, Tween pH 7.3). Injection of ethanolamine after target immobilization was used to block free NHS groups. To determine the binding of fusion proteins to FAP, the Fc-tagged target was injected with 60 or 30 nM to Protein A coupled spots followed by the injection of fusion proteins.
(§2) Binding proteins were applied to the chip in serial dilutions with a flow rate of 30 μl/min. Upon binding, analyte accumulated on the surface increasing the refractive index. This change in the refractive index was measured in real time and plotted as response or resonance units versus time. The association was performed for 120 seconds and the dissociation for 180 seconds. After each run, the chip surface was regenerated with 30 μl regeneration buffer (10 mM glycine pH 2.0 or pH 1.5) and equilibrated with running buffer. Binding studies were carried out using the Sierra SPR-32 system (Bruker); data evaluation was operated via the Sierra Analyser software, provided by the manufacturer, by the use of the Langmuir 1:1 model (RI=0).

In assay [2] the target is T2, Her2-Fc (human, UniProt P04626 23-652).
T2 construct: Coated in ELISA
Briefly: ELISA on coated Her2-Fc; 24 h in mouse serum at 37 C. The method, then: (§3) High binding plates (Greiner, 781061) were immobilized with 2.5 μg/ml hFAP-Fc or 1.2 μg/ml Her2-Fc over night at 4° C. Dilution series of 3 μM to 0.07 pM of fusion proteins with binding specifically to Her2 were incubated in 100% human serum or 100% mouse serum for 24 h at 37° C. Dilution series of 3 µM to 0.2 pM or 1 μM to 0.01 fM of fusion proteins with binding specifically to hFAP were incubated in 100% human serum or 100% mouse serum for 24 h at 37° C. ELISA-plates were washed three times with PBST (PBS+0.1% Tween) and blocked with 3% BSA/0.5% Tween/PBS up to 2 h at room temperature (rt). After preincubation for 0 h or 24 h in the presence of serum the dilution series were incubated on ELISA-plates for up to 1 h at rt. Wells were washed with PBST and incubated with biotinylated anti-ubiquitin-antibody (1:300) for up to 1 h at rt. The binding was visualized with Streptavidin-HRP (1:5.000).
(§4) The fusion proteins comprise the albumin binding domain (referred to as HED) and the targeting moiety.

Assay [3] concerns the target T2, Her2-Fc. Briefly: ELISA on coated Her2-Fc; 0 h in mouse serum. The method, then:
as §3, §4
(An ELISA detects its analyte on a solid surface through an enzyme-linked reagent.)

Assay [4] has as its target T2, Her2-Fc. The assay can be described thus: ELISA on coated Her2-Fc; after 24 h in human serum at 37 C. The method, then:
as §3, §4

For assay [5], the target named is T2, Her2-Fc. Briefly: ELISA on coated Her2-Fc; 24 h in human serum at 37 C. Here is the method: as §3, §4
Assay [6] addresses T3, Her2 expressed on Sk-Br-3 cells (human, UniProt P04626 23-1255).
T3 construct: whole, on cells; also called human epidermal growth factor receptor 2
Briefly: flow cytometry, dilution series on Sk-Br-3 cells. The method, then: Her2 expressing Sk-Br-3-cells and HEK293-hFAP overexpressing cells were thawed, washed with medium containing FCS, subsequently washed with FACS blocking buffer (PBS/0.1% Sodium Azide/3% FCS) and 100 μl seeded in 96-well round bottom plates with a density of 1×10⁶ cells/ml. Dilution series from 10 µM to 8.6 fM (CID 217781, CID 217787) and a dilution series of 3 µM to 0.2 μM (CID 218466, CID 218467, 218512, CID 218513, CID 218514, CID 218515, CID 218516) were incubated on Her2-expressing Sk-Br-3-cells and dilution series from 1 μM to 0.07 μM of fusion proteins 218690 and 218702 were incubated on hFAP-overexpressing HEK293-cell line for 45 min at 4° C. After centrifugation the supernatants were removed and cells were washed with FACS blocking buffer and 100 μl/well rabbit anti-Strep-Tag antibody (GenScript; A00626), 1:300 diluted in FACS blocking buffer were added. After removal of the primary antibody goat anti-rabbit IgG Alexa Fluor 488 antibody (Invitrogen; A4008) was applied in a 1:1000 dilution in FACS blocking buffer. Flow cytometry measurement was conducted on the Guava easyCyte 5HT device from Merck-Millipore at excitation wavelength 488 nm and emission wavelength 525/30 nm. The * in table 2 refers to a fusion protein with the albumin binding domain as dimer (homo-dimer) and/or the targeting moiety as dimer.
In general terms: Flow cytometry measures light scatter and fluorescence of single cells or particles in a stream.

For assay [7], the target named is T2, Her2-Fc. The assay can be described thus: ELISA on coated Her2-Fc; KD 24 h against KD 0 h, mouse serum. Here is the method:
as §3, §4

In the next assay the target is T4, human serum albumin (human, UniProt P02768 25-609).
T4 construct: also called HSA
Briefly: SPR, HSA immobilised on the chip, pH 7.3, 1:1 Langmuir fit. Here is the method: as §1, §2
In general terms: SPR reads the build-up and loss of mass on a sensor chip optically.

Assay [8] addresses T2, Her2-Fc. Briefly: ELISA on coated Her2-Fc; KD 24 h against KD 0 h, human serum. The method, then: as §3, §4
For assay [9], the target named is T2, Her2-Fc. Briefly: ELISA on coated Her2-Fc; 0 h in human serum. The method, then: as §3, §4
Assay [10] concerns the target T2, Her2-Fc. Briefly: ELISA on coated Her2-Fc; after 24 h in mouse serum at 37 C. The method, then:
as §3, §4

Assay [11] has as its target T5, human fibroblast activation protein (hFAP) expressed on the surface of HEK293-hFAP cells (human, UniProt Q12884 1-760).
T5 construct: whole, on cells; FAP overexpressing HEK293 cell line
T5 sequence (looked up): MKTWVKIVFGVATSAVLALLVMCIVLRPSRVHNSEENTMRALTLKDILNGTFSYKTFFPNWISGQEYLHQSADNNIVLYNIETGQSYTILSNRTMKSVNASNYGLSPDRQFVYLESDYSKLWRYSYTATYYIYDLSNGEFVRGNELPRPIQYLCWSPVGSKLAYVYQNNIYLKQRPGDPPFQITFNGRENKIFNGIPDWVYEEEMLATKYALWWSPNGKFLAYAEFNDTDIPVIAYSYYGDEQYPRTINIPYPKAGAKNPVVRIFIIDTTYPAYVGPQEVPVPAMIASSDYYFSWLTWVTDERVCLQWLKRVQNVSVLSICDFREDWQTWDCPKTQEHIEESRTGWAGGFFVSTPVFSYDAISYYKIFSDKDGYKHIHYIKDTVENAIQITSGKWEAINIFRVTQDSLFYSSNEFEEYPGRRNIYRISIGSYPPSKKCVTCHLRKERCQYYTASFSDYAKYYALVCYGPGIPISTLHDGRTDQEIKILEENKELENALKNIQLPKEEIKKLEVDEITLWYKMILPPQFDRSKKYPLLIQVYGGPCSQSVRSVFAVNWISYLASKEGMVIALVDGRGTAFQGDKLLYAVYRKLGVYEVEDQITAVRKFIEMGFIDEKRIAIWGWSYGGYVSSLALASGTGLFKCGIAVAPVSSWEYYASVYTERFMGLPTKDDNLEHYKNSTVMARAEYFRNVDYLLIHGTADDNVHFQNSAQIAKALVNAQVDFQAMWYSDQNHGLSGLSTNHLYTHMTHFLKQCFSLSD
Briefly: flow cytometry on HEK293-hFAP cells. Here is the method:
Fusion proteins were tested with a concentration of 1 μM, 100 nM, 10 nM, 1 nM or 0.1 nM on hFAP expressing HEK293-hFAP-cells. To exclude an unspecific binding, fusion proteins were also incubated on control cells HEK293-pEntry with the same concentrations. […] Supernatants were removed after 45 min, cells were washed in blocking buffer and 100 μl/well rabbit anti-StrepTag antibody (GenScript; A00626), 1:300 diluted in FACS blocking buffer were added. […] Flow cytometry measurement was conducted on the Guava easyCyte 5HT device from Merck-Millipore at excitation wavelength 488 nm and emission wavelength 525/30 nm.

T4 sequence (P02768 25-609 limits assumed): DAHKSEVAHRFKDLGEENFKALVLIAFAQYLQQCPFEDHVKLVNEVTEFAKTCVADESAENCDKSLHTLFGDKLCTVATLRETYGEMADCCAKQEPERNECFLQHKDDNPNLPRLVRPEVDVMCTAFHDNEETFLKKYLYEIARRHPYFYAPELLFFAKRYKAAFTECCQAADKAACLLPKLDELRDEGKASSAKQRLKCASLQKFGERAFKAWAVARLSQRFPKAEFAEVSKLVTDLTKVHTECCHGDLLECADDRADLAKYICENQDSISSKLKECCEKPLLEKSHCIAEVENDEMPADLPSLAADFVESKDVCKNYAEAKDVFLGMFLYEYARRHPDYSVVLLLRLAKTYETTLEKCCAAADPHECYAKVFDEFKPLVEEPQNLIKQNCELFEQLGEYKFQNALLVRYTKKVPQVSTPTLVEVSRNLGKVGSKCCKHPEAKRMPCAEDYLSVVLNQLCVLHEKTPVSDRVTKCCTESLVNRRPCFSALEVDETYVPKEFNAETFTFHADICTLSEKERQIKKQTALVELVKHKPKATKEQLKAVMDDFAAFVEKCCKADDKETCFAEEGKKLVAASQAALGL

B1: fusion protein 218515 (designed binder, not shown: small tags and cut ends)
chain (part 1 of 2): not shown
chain (part 2 of 2): LAEAKVLALKELDKYGISNYYKNLINNAKTIEGVKALKAQIVAA
notes: also called CID 218515
What is called Kd is the equilibrium constant for the complex coming apart. Higher therefore signals lower affinity. In the case of B1, the Kd amounted to 2.5 nM in [1]; 0.21 nM with Her2-Fc [2]; 0.18 nM with Her2-Fc [3]; 0.28 nM with Her2-Fc [5]; 1.47 nM in assay [6]; 9.1 nM with human serum albumin. This molecule registered a Kd with Her2-Fc [9] of 0.34 nM. In addition, the “max binding after 24 h [%]” value in the assay with Her2-Fc [4] stood at 96.1%; with Her2-Fc [10] it was 108%. For the same molecule, the “increase of KD vs target [fold]” value with Her2-Fc [7] worked out at 1.16 fold; with Her2-Fc [8] it was 0.82 fold.

B2: fusion protein 218691 (designed binder, not shown: small tags and cut ends)
chain (part 1 of 2): not shown
chain (part 2 of 2): B1 chain (part 2 of 2)
notes: also called CID 218691
Regarding B2, the binding result in [11] is “binds”.

B3: fusion protein 218699 (designed binder, not shown: small tags and cut ends)
chain (part 1 of 2): not shown
chain (part 2 of 2): B1 chain (part 2 of 2) with I31V, A39E, Q40A
notes: also called CID 218699
For the molecule B3, in assay [11], the binding result is recorded as “binds”.

B4: fusion protein 218516 (designed binder, not shown: small tags and cut ends)
chain (part 1 of 2): not shown
chain (part 2 of 2): B1 chain (part 2 of 2) with L9I, Y15A, K22F, I31V
notes: also called CID 218516
In the case of B4, the dissociation constant (Kd) in [1] stood at 2.4 nM; in the assay with Her2-Fc [2], 0.2 nM; with Her2-Fc [3], 0.17 nM; in the assay with Her2-Fc [5], 0.28 nM; in assay [6], 2.57 nM; with human serum albumin it was 10.9 nM. In the assay with Her2-Fc [9], this molecule had a Kd of 0.39 nM. Besides, the “max binding after 24 h [%]” value with Her2-Fc [4] was determined as 98.9%; with Her2-Fc [10], 101%. Also, the “increase of KD vs target [fold]” value with Her2-Fc [7] amounted to 1.21 fold; in the assay with Her2-Fc [8] it was 0.71 fold.

B5: fusion protein 218704 (designed binder, not shown: small tags and cut ends)
chain (part 1 of 2): not shown
chain (part 2 of 2): B1 chain (part 2 of 2) with L9I, Y15A, K22F, I31V, A36D
notes: also called CID 218704
As for B5, the binding result in assay [11] is recorded as “binds”.
